Biological target: T1, EsCas13d, nuclease-dead (Eubacterium siraeum, UniProt B0MS50, R295A;H300A;R849A;H854A)
T1 sequence: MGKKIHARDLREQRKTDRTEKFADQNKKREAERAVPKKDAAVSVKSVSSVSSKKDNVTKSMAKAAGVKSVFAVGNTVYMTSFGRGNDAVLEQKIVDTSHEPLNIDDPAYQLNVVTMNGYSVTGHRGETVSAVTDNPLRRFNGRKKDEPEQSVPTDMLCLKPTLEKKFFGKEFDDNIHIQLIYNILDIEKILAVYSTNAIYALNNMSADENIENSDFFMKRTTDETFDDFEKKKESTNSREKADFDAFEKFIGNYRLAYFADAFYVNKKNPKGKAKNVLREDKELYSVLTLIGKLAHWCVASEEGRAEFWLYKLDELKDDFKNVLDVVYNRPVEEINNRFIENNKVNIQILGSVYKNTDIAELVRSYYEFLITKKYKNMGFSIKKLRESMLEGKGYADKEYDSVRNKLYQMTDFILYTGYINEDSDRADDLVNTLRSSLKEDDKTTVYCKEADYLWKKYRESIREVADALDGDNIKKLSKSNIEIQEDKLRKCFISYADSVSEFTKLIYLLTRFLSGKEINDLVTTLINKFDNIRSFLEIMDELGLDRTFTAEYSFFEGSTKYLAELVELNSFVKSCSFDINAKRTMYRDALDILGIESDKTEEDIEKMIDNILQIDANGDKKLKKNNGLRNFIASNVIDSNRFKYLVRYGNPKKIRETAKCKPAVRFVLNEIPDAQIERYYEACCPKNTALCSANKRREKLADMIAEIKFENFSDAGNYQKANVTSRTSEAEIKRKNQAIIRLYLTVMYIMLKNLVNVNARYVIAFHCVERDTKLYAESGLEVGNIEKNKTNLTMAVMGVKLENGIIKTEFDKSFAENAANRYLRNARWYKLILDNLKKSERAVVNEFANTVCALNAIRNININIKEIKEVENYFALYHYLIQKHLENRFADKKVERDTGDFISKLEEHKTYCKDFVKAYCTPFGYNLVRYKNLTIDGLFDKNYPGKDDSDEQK
Test: crRNA (strand 1, pre-loaded); Mg2+; 40 mM Tris-HCl pH 7.5, 150 mM NaCl, 6 mM MgCl2, 1 mM DTT, 0.1% Tween-20, 0.2 mg/ml BSA; 25 C; 10 min per concentration, then washed
Details: tags: His6-TwinStrep-SUMO cleaved; N-terminal SNAP kept (SNAP-Surface 488); label: 3' end held by stalled T7 RNA polymerase

B1: target 1 C7A,A16U (mixed)
RNA 1: CACCCGUGCAAAAAUGCAGGGGUCUAAAACUGAGCGGAUAACCUCUCUAUGG
RNA 2: GGGAAUGGAUCCACAUCUACGAAUUCGUACCAUAGUGAGGUUAUACGCUCACCGAGAUCGGAAGAGCACACGU
  Kd: 42.2 ± 2.5 nM

B2: target 1 C6A,G15U (mixed)
RNA 1: CACCCGUGCAAAAAUGCAGGGGUCUAAAACUGAGCGGAUAACCUCUCUAUGG
RNA 2: GGGAAUGGAUCCACAUCUACGAAUUCGUACCAUAGAUAGGUUAUCAGCUCACCGAGAUCGGAAGAGCACACGU
  Kd: 27.5 ± 1.6 nM

B3: target 1 insU 3' of 6,insA 3' of 2 (mixed)
RNA 1: CACCCGUGCAAAAAUGCAGGGGUCUAAAACUGAGCGGAUAACCUCUCUAUGG
RNA 2: GGGAAUGGAUCCACAUCUACGAAUUCGUACCAUAGAGAGGUUAUCCUGCUCAACCGAGAUCGGAAGAGCACACGU
  Kd: 12.8 ± 0.8 nM

B4: target 1 G12C,A14G (mixed)
RNA 1: CACCCGUGCAAAAAUGCAGGGGUCUAAAACUGAGCGGAUAACCUCUCUAUGG
RNA 2: GGGAAUGGAUCCACAUCUACGAAUUCGUACCAUAGAGGGCUUAUCCGCUCACCGAGAUCGGAAGAGCACACGU
  Kd: 27.5 ± 3.1 nM

B5: target 1 A16G,G17A (mixed)
RNA 1: CACCCGUGCAAAAAUGCAGGGGUCUAAAACUGAGCGGAUAACCUCUCUAUGG
RNA 2: GGGAAUGGAUCCACAUCUACGAAUUCGUACCAUAAGGAGGUUAUCCGCUCACCGAGAUCGGAAGAGCACACGU
  Kd: 84 ± 30 nM

B6: target 1 insG 3' of 20,insC 3' of 15 (mixed)
RNA 1: CACCCGUGCAAAAAUGCAGGGGUCUAAAACUGAGCGGAUAACCUCUCUAUGG
RNA 2: GGGAAUGGAUCCACAUCUACGAAUUCGUACCAGUAGAGCAGGUUAUCCGCUCACCGAGAUCGGAAGAGCACACGU
  Kd: 89 ± 33 nM

B7: target 1 U3C,A9U (mixed)
RNA 1: CACCCGUGCAAAAAUGCAGGGGUCUAAAACUGAGCGGAUAACCUCUCUAUGG
RNA 2: GGGAAUGGAUCCACAUCUACGAAUUCGUACCAUAGAGAGGUUUUCCGCCCACCGAGAUCGGAAGAGCACACGU
  Kd: 44 ± 6 nM

B8: target 1 insU 3' of 6,insC 3' of 1 (mixed)
RNA 1: CACCCGUGCAAAAAUGCAGGGGUCUAAAACUGAGCGGAUAACCUCUCUAUGG
RNA 2: GGGAAUGGAUCCACAUCUACGAAUUCGUACCAUAGAGAGGUUAUCCUGCUCACCCGAGAUCGGAAGAGCACACGU
  Kd: 11.7 ± 0.8 nM

B9: target 1 insU 3' of 6,insU 3' of 1 (mixed)
RNA 1: CACCCGUGCAAAAAUGCAGGGGUCUAAAACUGAGCGGAUAACCUCUCUAUGG
RNA 2: GGGAAUGGAUCCACAUCUACGAAUUCGUACCAUAGAGAGGUUAUCCUGCUCAUCCGAGAUCGGAAGAGCACACGU
  Kd: 14.1 ± 1.4 nM

B10: target 1 insA 3' of 3,insU 3' of 2 (mixed)
RNA 1: CACCCGUGCAAAAAUGCAGGGGUCUAAAACUGAGCGGAUAACCUCUCUAUGG
RNA 2: GGGAAUGGAUCCACAUCUACGAAUUCGUACCAUAGAGAGGUUAUCCGCUACUACCGAGAUCGGAAGAGCACACGU
  Kd: 9 ± 0.6 nM

B11: target 1 G5C,G13C (mixed)
RNA 1: CACCCGUGCAAAAAUGCAGGGGUCUAAAACUGAGCGGAUAACCUCUCUAUGG
RNA 2: GGGAAUGGAUCCACAUCUACGAAUUCGUACCAUAGAGACGUUAUCCCCUCACCGAGAUCGGAAGAGCACACGU
  Kd: 41 ± 5 nM

B12: target 1 insG 3' of 14,insG 3' of 10 (mixed)
RNA 1: CACCCGUGCAAAAAUGCAGGGGUCUAAAACUGAGCGGAUAACCUCUCUAUGG
RNA 2: GGGAAUGGAUCCACAUCUACGAAUUCGUACCAUAGAGAGGGUUGAUCCGCUCACCGAGAUCGGAAGAGCACACGU
  Kd: 16.7 ± 1 nM

B13: target 1 insA 3' of 11,insG 3' of 11 (mixed)
RNA 1: CACCCGUGCAAAAAUGCAGGGGUCUAAAACUGAGCGGAUAACCUCUCUAUGG
RNA 2: GGGAAUGGAUCCACAUCUACGAAUUCGUACCAUAGAGAGGUAGUAUCCGCUCACCGAGAUCGGAAGAGCACACGU
  Kd: 12.4 ± 0.4 nM

B14: target 1 G12A,G15A (mixed)
RNA 1: CACCCGUGCAAAAAUGCAGGGGUCUAAAACUGAGCGGAUAACCUCUCUAUGG
RNA 2: GGGAAUGGAUCCACAUCUACGAAUUCGUACCAUAGAAAGAUUAUCCGCUCACCGAGAUCGGAAGAGCACACGU
  Kd: 20 ± 2.3 nM

B15: target 1 insA 3' of 7,insC 3' of 5 (mixed)
RNA 1: CACCCGUGCAAAAAUGCAGGGGUCUAAAACUGAGCGGAUAACCUCUCUAUGG
RNA 2: GGGAAUGGAUCCACAUCUACGAAUUCGUACCAUAGAGAGGUUAUCACGCCUCACCGAGAUCGGAAGAGCACACGU
  Kd: 11.1 ± 0.5 nM

B16: target 1 G5C,U19A (mixed)
RNA 1: CACCCGUGCAAAAAUGCAGGGGUCUAAAACUGAGCGGAUAACCUCUCUAUGG
RNA 2: GGGAAUGGAUCCACAUCUACGAAUUCGUACCAAAGAGAGGUUAUCCCCUCACCGAGAUCGGAAGAGCACACGU
  Kd: 34.1 ± 3 nM

B17: target 1 U11G,A20U (mixed)
RNA 1: CACCCGUGCAAAAAUGCAGGGGUCUAAAACUGAGCGGAUAACCUCUCUAUGG
RNA 2: GGGAAUGGAUCCACAUCUACGAAUUCGUACCUUAGAGAGGGUAUCCGCUCACCGAGAUCGGAAGAGCACACGU
  Kd: 77 ± 24 nM

B18: target 1 U10G,G12U (mixed)
RNA 1: CACCCGUGCAAAAAUGCAGGGGUCUAAAACUGAGCGGAUAACCUCUCUAUGG
RNA 2: GGGAAUGGAUCCACAUCUACGAAUUCGUACCAUAGAGAGUUGAUCCGCUCACCGAGAUCGGAAGAGCACACGU
  Kd: 20 ± 4 nM

B19: target 1 A9G,G12A (mixed)
RNA 1: CACCCGUGCAAAAAUGCAGGGGUCUAAAACUGAGCGGAUAACCUCUCUAUGG
RNA 2: GGGAAUGGAUCCACAUCUACGAAUUCGUACCAUAGAGAGAUUGUCCGCUCACCGAGAUCGGAAGAGCACACGU
  Kd: 6.8 ± 0.5 nM

B20: target 1 U8A,A14G (mixed)
RNA 1: CACCCGUGCAAAAAUGCAGGGGUCUAAAACUGAGCGGAUAACCUCUCUAUGG
RNA 2: GGGAAUGGAUCCACAUCUACGAAUUCGUACCAUAGAGGGGUUAACCGCUCACCGAGAUCGGAAGAGCACACGU
  Kd: 31.1 ± 1.6 nM

B21: target 1 del13,del19 (mixed)
RNA 1: CACCCGUGCAAAAAUGCAGGGGUCUAAAACUGAGCGGAUAACCUCUCUAUGG
RNA 2: GGGAAUGGAUCCACAUCUACGAAUUCGUACCAAGAGAGUUAUCCGCUCACCGAGAUCGGAAGAGCACACGU
  Kd: 80 ± 28 nM

B22: target 1 G17A,A18G (mixed)
RNA 1: CACCCGUGCAAAAAUGCAGGGGUCUAAAACUGAGCGGAUAACCUCUCUAUGG
RNA 2: GGGAAUGGAUCCACAUCUACGAAUUCGUACCAUGAAGAGGUUAUCCGCUCACCGAGAUCGGAAGAGCACACGU
  Kd: 81 ± 22 nM

B23: target 1 G5A,C6G (mixed)
RNA 1: CACCCGUGCAAAAAUGCAGGGGUCUAAAACUGAGCGGAUAACCUCUCUAUGG
RNA 2: GGGAAUGGAUCCACAUCUACGAAUUCGUACCAUAGAGAGGUUAUCGACUCACCGAGAUCGGAAGAGCACACGU
  Kd: 8 ± 0.4 nM

B24: target 1 C2U,G13A (mixed)
RNA 1: CACCCGUGCAAAAAUGCAGGGGUCUAAAACUGAGCGGAUAACCUCUCUAUGG
RNA 2: GGGAAUGGAUCCACAUCUACGAAUUCGUACCAUAGAGAAGUUAUCCGCUUACCGAGAUCGGAAGAGCACACGU
  Kd: 5.7 ± 0.33 nM

B25: target 1 C4A,U8G (mixed)
RNA 1: CACCCGUGCAAAAAUGCAGGGGUCUAAAACUGAGCGGAUAACCUCUCUAUGG
RNA 2: GGGAAUGGAUCCACAUCUACGAAUUCGUACCAUAGAGAGGUUAGCCGAUCACCGAGAUCGGAAGAGCACACGU
  Kd: 10.3 ± 0.7 nM

B26: target 1 insC 3' of 20,insA 3' of 4 (mixed)
RNA 1: CACCCGUGCAAAAAUGCAGGGGUCUAAAACUGAGCGGAUAACCUCUCUAUGG
RNA 2: GGGAAUGGAUCCACAUCUACGAAUUCGUACCACUAGAGAGGUUAUCCGCAUCACCGAGAUCGGAAGAGCACACGU
  Kd: 6.4 ± 0.4 nM

B27: target 1 insA 3' of 2,insU 3' of 2 (mixed)
RNA 1: CACCCGUGCAAAAAUGCAGGGGUCUAAAACUGAGCGGAUAACCUCUCUAUGG
RNA 2: GGGAAUGGAUCCACAUCUACGAAUUCGUACCAUAGAGAGGUUAUCCGCUCAUACCGAGAUCGGAAGAGCACACGU
  Kd: 12 ± 0.7 nM

B28: target 1 insA 3' of 17,insU 3' of 14 (mixed)
RNA 1: CACCCGUGCAAAAAUGCAGGGGUCUAAAACUGAGCGGAUAACCUCUCUAUGG
RNA 2: GGGAAUGGAUCCACAUCUACGAAUUCGUACCAUAGAAGAUGGUUAUCCGCUCACCGAGAUCGGAAGAGCACACGU
  Kd: 62 ± 11 nM

— publication PMC10786891, “Massively parallel profiling of RNA-targeting CRISPR-Cas13d”
